Laboratory results as given in PMC8816864 (Proteins, 2021).

B1: HSP60 (GFP fusion) (natural protein, S. cerevisiae, UniProt P19882 26-572, looked up)
chain: ELKFGVEGRASLLKGVETLAEAVAATLGPKGRNVLIEQPFGPPKITKDGVTVAKSIVLKDKFENMGAKLLQEVASKTNEAAGDGTTSATVLGRAIFTESVKNVAAGCNPMDLRRGSQVAVEKVIEFLSANKKEITTSEEIAQVATISANGDSHVGKLLASAMEKVGKEGVITIREGRTLEDELEVTEGMRFDRGFISPYFITDPKSSKVEFEKPLLLLSEKKISSIQDILPALEISNQSRRPLLIIAEDVDGEALAACILNKLRGQVKVCAVKAPGFGDNRKNTIGDIAVLTGGTVFTEELDLKPEQCTIENLGSCDSITVTKEDTVILNGSGPKEAIQERIEQIKGSIDITTTNSYEKEKLQERLAKLSGGVAVIRVGGASEVEVGEKKDRYDDALNATRAAVEEGILPGGGTALVKASRVLDEVVVDNFDQKLGVDIIRKAITRPAKQIIENAGEEGSVIIGKLIDEYGDDFAKGYDASKSEYTDMLATGIIDPFKVVRSGLVDASGVASLLATTEVAIVDAPEPPAAAGAGGMPGGMPGMPGMM
B2: SSA2-GFP (natural protein)
chain: not shown
B3: HSP26 (GFP fusion) (natural protein, S. cerevisiae, UniProt P15992 1-214, looked up)
chain: MSFNSPFFDFFDNINNEVDAFNRLLGEGGLRGYAPRRQLANTPAKDSTGKEVARPNNYAGALYDPRDETLDDWFDNDLSLFPSGFGFPRSVAVPVDILDHDNNYELKVVVPGVKSKKDIDIEYHQNKNQILVSGEIPSTLNEESKDKVKVKESSSGKFKRVITLPDYPGVDADNIKADYANGVLTLTVPKLKPQKDGKNHVKKIEVSSQESWGN
B4: SSA1-GFP (natural protein)
chain: not shown
B5: HSC82 (GFP fusion) (natural protein)
chain: not shown
B6: eRF1-GFP (natural protein, S. cerevisiae, UniProt P12385 1-437, looked up)
chain: MDNEVEKNIEIWKVKKLVQSLEKARGNGTSMISLVIPPKGQIPLYQKMLTDEYGTASNIKSRVNRLSVLSAITSTQQKLKLYNTLPKNGLVLYCGDIITEDGKEKKVTFDIEPYKPINTSLYLCDNKFHTEVLSELLQADDKFGFIVMDGQGTLFGSVSGNTRTVLHKFTVDLPKKHGRGGQSALRFARLREEKRHNYVRKVAEVAVQNFITNDKVNVKGLILAGSADFKTDLAKSELFDPRLACKVISIVDVSYGGENGFNQAIELSAEALANVKYVQEKKLLEAYFDEISQDTGKFCYGIDDTLKALDLGAVEKLIVFENLETIRYTFKDAEDNEVIKFAEPEAKDKSFAIDKATGQEMDVVSEEPLIEWLAANYKNFGATLEFITDKSSEGAQFVTGFGGIGAMLRYKVNFEQLVDESEDEYYDEDEGSDYDFI
B7: HSP82 (GFP fusion) (natural protein)
chain: not shown

Target: T1, Flag-eRF1 (S. cerevisiae, UniProt P12385 1-437)
Assay: co-IP + AUC

Row | Binder | % abundance in the Flag-eRF1 pull-down normalized to SUP35 (19S-200S) [%]
1 | B1 | 11 ± 0.75
2 | B2 | 33 ± 3.45
3 | B3 | 7.6 ± 2.9
4 | B4 | 30 ± 0.63
5 | B5 | 9.5 ± 3.5
6 | B6 | 13 ± 4.5
7 | B7 | 8.6 ± 2.9

Target: T1, Flag-eRF1
Assay: co-IP + AUC
Remark: another data set of the same source

Row | Binder | normalized AU-FDS intensity relative to SUP35-GFP (19S peak) | normalized AU-FDS intensity relative to SUP35-GFP (28S peak) | normalized AU-FDS intensity relative to SUP35-GFP (39S peak) | normalized AU-FDS intensity relative to SUP35-GFP (57S peak) | normalized AU-FDS intensity relative to SUP35-GFP (77S-200S)
8 | B1 | 0.069 | 0.11 | 0.1 | 0.11 | 0.13
9 | B2 | 0.28 | 0.35 | 0.36 | 0.27 | 0.38
10 | B3 | 0.087 | 0.12 | 0.056 | 0.052 | 0.065
11 | B4 | 0.29 | 0.37 | 0.28 | 0.28 | 0.31
12 | B5 | 0.08 | 0.088 | 0.11 | 0.11 | 0.083
13 | B7 | 0.066 | 0.13 | 0.075 | 0.058 | 0.027
